# In US20200199241A1 (Chugai, published 2020):
# Residue numbers refer to the chain shown, from its start. In names and notes the source's numbering stands.
# B1: IgG1-F21 (antibody)
# heavy: QVQLQESGPGLVKPSETLSLTCAVSGHSISHDHAWSWVRQPPGEGLEWIGFISYSGITNYNPSLQGRVTISRDNSKNTLYLQMNSLRAEDTAVYYCARSLARTTAMDYWGEGTLVTVSSASTKGPSVFPLAPSSKSTSGGTAALGCLVKDYFPEPVTVSWNSGALTSGVHTFPAVLQSSGLYSLSSVVTVPSSSLGTQTYICNVNHKPSNTKVDKKVEPKSCDKTHTCPPCPAPELLGGPSVFLFPPKPKDTLYISRTPEVTCVVVDVSHEDPEVKFNWYVDGVEVHNAKTKPREEQYNSTYRVVSVLTPLHQDWLNGKEYKCKVSNKALPAPIEKTISKAKGQPREPQVYTLPPSRDELTKNQVSLTCLVKGFYPSDIAVEWESNGQPENNYKTTPPVLDSDGSFFLYSKLTVDKSRWQQGNVFSCSVMHEALHYHYTQKSLSLSP
# light: not shown
# notes: copies: 2 + 2
# B2: IgG1-F85 (antibody)
# heavy: B1 heavy with Y254W, T258Q, P310V
# light: not shown
# notes: EU numbering; copies: 2 + 2
# B3: IgG1-F99 (antibody)
# heavy: B1 heavy with T258E, P310V, Y436H
# light: not shown
# notes: EU numbering; copies: 2 + 2
# B4: IgG1-F78 (antibody)
# heavy: B1 heavy with Y254M, S256T, P310V, M430L, Y436W
# light: not shown
# notes: EU numbering; copies: 2 + 2
# B5: IgG1-F104 (antibody)
# heavy: B1 heavy with D267A
# light: not shown
# notes: EU numbering; copies: 2 + 2
# B6: IgG1-F122 (antibody)
# heavy: B1 heavy with T258E, P310V, M430L, Y436W
# light: not shown
# notes: EU numbering; copies: 2 + 2
# B7: IgG1-F90 (antibody)
# heavy: B1 heavy with T258E, Y436W
# light: not shown
# notes: EU numbering; copies: 2 + 2
# B8: IgG1-F80 (antibody)
# heavy: B1 heavy with T258Q, P310V, Y436A
# light: not shown
# notes: EU numbering; copies: 2 + 2
# B9: IgG1-F123 (antibody)
# heavy: B1 heavy with T258E
# light: not shown
# notes: EU numbering; copies: 2 + 2
# B10: IgG1-F39 (antibody)
# heavy: B1 heavy with S256T, P310V
# light: not shown
# notes: EU numbering; copies: 2 + 2
# B11: IgG1-F81 (antibody)
# heavy: B1 heavy with T258E, P310V, Y436A
# light: not shown
# notes: EU numbering; copies: 2 + 2
# B12: IgG1-F75 (antibody)
# heavy: B1 heavy with P310V, M430L, Y436A
# light: not shown
# notes: EU numbering; copies: 2 + 2
# B13: IgG1-F88 (antibody)
# heavy: B1 heavy with S256T, T258Q, P310V, Y436W
# light: not shown
# notes: EU numbering; copies: 2 + 2
# B14: IgG1-F92 (antibody)
# heavy: B1 heavy with S256T, T258E, M430L, Y436W
# light: not shown
# notes: EU numbering; copies: 2 + 2
# B15: IgG1-F86 (antibody)
# heavy: B1 heavy with Y254M, S256T, T258Q, P310V, Y436W
# light: not shown
# notes: EU numbering; copies: 2 + 2
# B16: IgG1-F105 (antibody)
# heavy: B1 heavy with T309A
# light: not shown
# notes: EU numbering; copies: 2 + 2
# B17: IgG1-F111 (antibody)
# heavy: B1 heavy with K319A
# light: not shown
# notes: EU numbering; copies: 2 + 2
# B18: IgG1-F114 (antibody)
# heavy: B1 heavy with S426A
# light: not shown
# notes: EU numbering; copies: 2 + 2
# B19: IgG1-F77 (antibody)
# heavy: B1 heavy with Y254M, T258E, P310V, M430L
# light: not shown
# notes: EU numbering; copies: 2 + 2
# B20: IgG1-F74 (antibody)
# heavy: B1 heavy with P310V, M430L
# light: not shown
# notes: EU numbering; copies: 2 + 2
# B21: IgG1-F120 (antibody)
# heavy: B1 heavy with Y254M, P259L, M430L
# light: not shown
# notes: EU numbering; copies: 2 + 2
# B22: IgG1-F91 (antibody)
# heavy: B1 heavy with M430L
# light: not shown
# notes: EU numbering; copies: 2 + 2
# B23: IgG1-F93 (antibody)
# heavy: B1 heavy with Y254W, P310V, M430L, Y436W
# light: not shown
# notes: copies: 2 + 2
# B24: IgG1-F121 (antibody)
# heavy: B1 heavy with T258E, M430L, Y436W
# light: not shown
# notes: EU numbering; copies: 2 + 2
# B25: IgG1-F89 (antibody)
# heavy: B1 heavy with S256T, T258Q, P310V
# light: not shown
# notes: EU numbering; copies: 2 + 2
# B26: IgG1-F113 (antibody)
# heavy: B1 heavy with E384A
# light: not shown
# notes: EU numbering; copies: 2 + 2
# B27: IgG1-F76 (antibody)
# heavy: B1 heavy with S256T, T258E, P310V, M430L, Y436A
# light: not shown
# notes: EU numbering; copies: 2 + 2
# B28: IgG1-F108 (antibody)
# heavy: B1 heavy with V307A
# light: not shown
# notes: EU numbering; copies: 2 + 2
# B29: IgG1-F101 (antibody)
# heavy: B1 heavy with Y254W, T258Q, P259L, P310V
# light: not shown
# notes: EU numbering; copies: 2 + 2
# B30: IgG1-F84 (antibody)
# heavy: B1 heavy with Y254W, T258Q, P310V, Y436W
# light: not shown
# notes: EU numbering; copies: 2 + 2
# B31: IgG1-F94 (antibody)
# heavy: B1 heavy with Y254M, P259L, P310V, M430L
# light: not shown
# notes: copies: 2 + 2
# B32: IgG1-F73 (antibody)
# heavy: B1 heavy with P310V, M430L, Y436W
# light: not shown
# notes: EU numbering; copies: 2 + 2
# B33: IgG1-F87 (antibody)
# heavy: B1 heavy with Y254M, S256T, T258Q, P310V
# light: not shown
# notes: EU numbering; copies: 2 + 2
# B34: IgG1-F38 (antibody)
# heavy: B1 heavy with S256T, P310V, Y436W
# light: not shown
# notes: EU numbering; copies: 2 + 2
# B35: IgG1-F112 (antibody)
# heavy: B1 heavy with E382A
# light: not shown
# notes: EU numbering; copies: 2 + 2
# B36: IgG1-F95 (antibody)
# heavy: B1 heavy with S256T, T258E, P310V, M430L, Y436F
# light: not shown
# notes: EU numbering; copies: 2 + 2
# B37: IgG1-F109 (antibody)
# heavy: B1 heavy with Q313A
# light: not shown
# notes: EU numbering; 'M4252Y' read as M252Y; copies: 2 + 2
# B38: IgG1-F42 (antibody)
# heavy: B1 heavy with S256T, T258E, P310V, Y436A
# light: not shown
# notes: EU numbering; copies: 2 + 2
# B39: IgG1-F107 (antibody)
# heavy: B1 heavy with D378A
# light: not shown
# notes: EU numbering; copies: 2 + 2
# B40: IgG1-F106 (antibody)
# heavy: B1 heavy with V305A
# light: not shown
# notes: EU numbering; copies: 2 + 2
# B41: IgG1-F72 (antibody)
# heavy: B1 heavy with S256T, T258E, P310V, M430L
# light: not shown
# notes: EU numbering; copies: 2 + 2
# B42: IgG1-F103 (antibody)
# heavy: B1 heavy with P240A
# light: not shown
# notes: EU numbering; copies: 2 + 2
# Molecular target: T1, human FcRn (soluble human FcRn complexed with β2-microglobulin) (human, UniProt P61769 21-119, limits assumed)
# T1 construct: also called hFcRn
# Assay: SPR, pH 7.0;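 further: antibodies captured on a Protein L sensor chip with human FcRn injected as analyte, KD calculated from fitted association and dissociation rate constants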
row,Kd [nM],Binder
1,30,B1
2,550,B2
3,620,B3
4,780,B4
5,37,B5
6,120,B6
7,19,B7
8,2700,B8
9,30,B9
10,300,B10
11,1600,B11
12,1400,B12
13,190,B13
14,11,B14
15,1500,B15
16,75,B16
17,32,B17
18,38,B18
19,990,B19
20,460,B20
21,63,B21

row,Kd [nM],Binder
1,48,B22
2,740,B23
3,15,B24
4,360,B25
5,32,B26
6,1000,B27
7,41,B28
8,110,B29
9,280,B30
10,370,B31
11,170,B32
12,4300,B33
13,100,B34
14,64,B35
15,260,B36
16,32,B37
17,1000,B38
18,34,B39
19,37,B40
20,200,B41
21,44,B42
